Measured values taken from paper PMC2756588.

T1: Abp1, P15891
T1 sequence (P15891 535-592, looked up): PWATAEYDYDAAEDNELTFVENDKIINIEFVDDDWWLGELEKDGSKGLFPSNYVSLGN

T2: Bbc1, P47068
T2 sequence (P47068 1-78, looked up): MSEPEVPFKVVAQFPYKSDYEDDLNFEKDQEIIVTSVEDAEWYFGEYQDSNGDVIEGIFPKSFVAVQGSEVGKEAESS

T3: Boi1, P38041
T3 sequence (P38041 1-86, looked up): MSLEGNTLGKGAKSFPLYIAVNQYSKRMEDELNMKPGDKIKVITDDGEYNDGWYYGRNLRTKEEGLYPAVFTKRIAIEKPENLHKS

T4: Boi2, P39969
T4 sequence (P39969 32-116, looked up): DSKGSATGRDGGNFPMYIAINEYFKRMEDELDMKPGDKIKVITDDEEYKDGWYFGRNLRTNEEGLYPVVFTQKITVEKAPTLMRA

T5: Bud14, P27637
T5 sequence (P27637 247-328, looked up): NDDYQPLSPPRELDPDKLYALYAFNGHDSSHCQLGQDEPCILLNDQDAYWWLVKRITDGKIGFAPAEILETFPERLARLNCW

T6: Bzz1-1, P38822
T6 sequence (P38822 478-572, looked up): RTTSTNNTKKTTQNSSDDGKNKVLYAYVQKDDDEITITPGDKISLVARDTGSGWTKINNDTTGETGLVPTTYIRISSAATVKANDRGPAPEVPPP

T7: Bzz1-2, P38822
T7 sequence (P38822 568-633, looked up): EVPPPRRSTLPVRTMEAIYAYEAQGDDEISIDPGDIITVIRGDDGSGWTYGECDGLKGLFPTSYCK

T8: Cdc25, P04821
T8 sequence (P04821 50-136, looked up): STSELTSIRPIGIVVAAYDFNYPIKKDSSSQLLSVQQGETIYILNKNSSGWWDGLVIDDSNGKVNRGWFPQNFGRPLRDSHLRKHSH

T9: Cyk3, Q07533
T9 sequence (Q07533 1-83, looked up): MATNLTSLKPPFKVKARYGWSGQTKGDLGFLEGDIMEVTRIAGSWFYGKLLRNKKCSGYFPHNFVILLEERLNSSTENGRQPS

T10: Fus1, P11710
T10 sequence (P11710 432-512, looked up): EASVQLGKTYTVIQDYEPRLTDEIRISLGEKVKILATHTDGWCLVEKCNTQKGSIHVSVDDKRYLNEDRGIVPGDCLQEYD

T11: Hof1, Q05080
T11 sequence (Q05080 590-669, looked up): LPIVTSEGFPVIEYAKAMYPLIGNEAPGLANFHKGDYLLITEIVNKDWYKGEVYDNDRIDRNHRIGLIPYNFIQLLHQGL

T12: Hse1, P38753
T12 sequence (P38753 208-285, looked up): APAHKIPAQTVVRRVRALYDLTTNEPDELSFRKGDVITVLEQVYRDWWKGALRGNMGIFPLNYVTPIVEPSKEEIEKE

T13: Lsb1, P53281
T13 sequence (P53281 45-122, looked up): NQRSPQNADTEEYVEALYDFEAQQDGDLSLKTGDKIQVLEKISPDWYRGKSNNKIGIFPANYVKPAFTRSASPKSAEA

T14: Lsb3, P43603
T14 sequence (P43603 385-451, looked up): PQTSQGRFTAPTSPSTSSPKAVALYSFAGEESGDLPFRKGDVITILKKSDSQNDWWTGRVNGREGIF

T15: Lsb4, P32793
T15 sequence (P32793 402-468, looked up): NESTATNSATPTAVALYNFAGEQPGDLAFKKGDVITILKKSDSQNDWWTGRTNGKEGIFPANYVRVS

T16: Myo5, Q04439
T16 sequence (Q04439 1072-1160, looked up): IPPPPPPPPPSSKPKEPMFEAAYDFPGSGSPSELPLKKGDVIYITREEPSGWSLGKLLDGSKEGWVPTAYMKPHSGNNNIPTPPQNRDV

T17: Nbp2, Q12163
T17 sequence (Q12163 103-180, looked up): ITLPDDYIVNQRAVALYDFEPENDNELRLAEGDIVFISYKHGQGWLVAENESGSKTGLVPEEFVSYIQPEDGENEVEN

T18: Pex13, P80667
T18 sequence (P80667 295-386, looked up): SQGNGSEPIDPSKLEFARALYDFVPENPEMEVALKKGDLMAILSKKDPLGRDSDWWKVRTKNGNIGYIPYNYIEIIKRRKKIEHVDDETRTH

T19: Pin3, Q06449
T19 sequence (Q06449 53-122, looked up): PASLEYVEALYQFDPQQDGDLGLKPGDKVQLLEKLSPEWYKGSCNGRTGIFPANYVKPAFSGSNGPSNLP

T20: Sla1-2, P32790
T20 sequence (P32790 60-140, looked up): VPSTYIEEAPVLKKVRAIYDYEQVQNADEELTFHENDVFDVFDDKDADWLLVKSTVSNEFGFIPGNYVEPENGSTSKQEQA

T21: Sla1-3, P32790
T21 sequence (P32790 344-424, looked up): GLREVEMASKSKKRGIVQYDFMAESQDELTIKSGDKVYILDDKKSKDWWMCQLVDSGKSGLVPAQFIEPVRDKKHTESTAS

B1: unnamed (peptide)
chain: VRVKKRPLIRPLNSS
B2: unnamed (peptide)
chain: VNFRRIPTGPDSPPT
B3: unnamed (peptide)
chain: ISRRRLPVIMHRLKM
B4: unnamed (peptide)
chain: RRRIAYPFYPFKKLG
B5: unnamed (peptide)
chain: LRIKRKPVQTFFEFI
B6: unnamed (peptide)
chain: RRARRQMGIPTISQV

Each binder was assayed against T1, Abp1, P15891 (assay: SPOT array). Conditions: median of control spots 935.

| SPOT intensity | Binder |
| --- | --- |
| 301 | B1 |
| 5 | B2 |
| 90 | B3 |
| 36 | B4 |
| 102 | B5 |
| 95 | B6 |

Each binder was assayed against T2, Bbc1, P47068 (assay: SPOT array). Conditions: median of control spots 796.

| SPOT intensity | Binder |
| --- | --- |
| 201 | B1 |
| 2 | B2 |
| 26 | B3 |
| 133 | B4 |
| 54 | B5 |
| 58 | B6 |

What follows are binders tested against Bem1-1, P29366 (assay: SPOT array). Conditions: median of control spots 4282.
Sequence of Bem1-1, P29366 (P29366 55-141): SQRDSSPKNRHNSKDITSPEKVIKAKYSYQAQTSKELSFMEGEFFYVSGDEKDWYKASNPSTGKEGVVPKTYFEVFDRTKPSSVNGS

| SPOT intensity | Binder |
| --- | --- |
| 0 | B1 |
| 0 | B2 |
| 0 | B3 |
| 1 | B4 |
| 1 | B5 |
| 3 | B6 |

What follows are binders tested against Bem1-2, P29366 (assay: SPOT array). Conditions: median of control spots 4347.
Sequence of Bem1-2, P29366 (P29366 139-227): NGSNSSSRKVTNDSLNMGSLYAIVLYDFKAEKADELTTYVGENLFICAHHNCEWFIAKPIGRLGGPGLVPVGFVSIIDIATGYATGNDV

| SPOT intensity | Binder |
| --- | --- |
| 0 | B1 |
| 0 | B2 |
| 16 | B3 |
| 3 | B4 |
| 4 | B5 |
| 12 | B6 |

What follows are binders tested against T3, Boi1, P38041 (assay: SPOT array). Conditions: median of control spots 1162.

| SPOT intensity | Binder |
| --- | --- |
| 2 | B1 |
| 0 | B2 |
| 1 | B3 |
| 2 | B4 |
| 11 | B5 |
| 3 | B6 |

What follows are binders tested against T4, Boi2, P39969 (assay: SPOT array). Conditions: median of control spots 1161.

| SPOT intensity | Binder |
| --- | --- |
| 3 | B1 |
| 0 | B2 |
| 1 | B3 |
| 0 | B4 |
| 1 | B5 |
| 1 | B6 |

What follows are binders tested against T5, Bud14, P27637 (assay: SPOT array). Conditions: median of control spots 956.

| SPOT intensity | Binder |
| --- | --- |
| 16 | B1 |
| 3 | B2 |
| 2 | B3 |
| 3 | B4 |
| 17 | B5 |
| 41 | B6 |

Each binder was assayed against T6, Bzz1-1, P38822 (assay: SPOT array). Conditions: median of control spots 4446.

| SPOT intensity | Binder |
| --- | --- |
| 1 | B1 |
| 0 | B2 |
| 0 | B3 |
| 0 | B4 |
| 0 | B5 |
| 2 | B6 |

What follows are binders tested against T7, Bzz1-2, P38822 (assay: SPOT array). Conditions: median of control spots 4538.

| SPOT intensity | Binder |
| --- | --- |
| 11 | B1 |
| 3 | B2 |
| 5 | B3 |
| 6 | B4 |
| 0 | B5 |
| 25 | B6 |

What follows are binders tested against T8, Cdc25, P04821 (assay: SPOT array). Conditions: median of control spots 969.

| SPOT intensity | Binder |
| --- | --- |
| 127 | B1 |
| 0 | B2 |
| 51 | B3 |
| 85 | B4 |
| 271 | B5 |
| 120 | B6 |

These binders were tested against T9, Cyk3, Q07533 (assay: SPOT array). Conditions: median of control spots 1451.

| SPOT intensity | Binder |
| --- | --- |
| 2 | B1 |
| 0 | B2 |
| 0 | B3 |
| 1 | B4 |
| 1 | B5 |
| 2 | B6 |

What follows are binders tested against T10, Fus1, P11710 (assay: SPOT array). Conditions: median of control spots 1200.

| SPOT intensity | Binder |
| --- | --- |
| 6 | B1 |
| 0 | B2 |
| 15 | B3 |
| 14 | B4 |
| 16 | B5 |
| 1 | B6 |

What follows are binders tested against GST (assay: SPOT array). Conditions: median of control spots 978.

| SPOT intensity | Binder |
| --- | --- |
| 1 | B1 |
| 0 | B2 |
| 0 | B3 |
| 2 | B4 |
| 1 | B5 |
| 7 | B6 |

The binders below were run against T11, Hof1, Q05080 (assay: SPOT array). Conditions: median of control spots 4086.

| SPOT intensity | Binder |
| --- | --- |
| 0 | B1 |
| 3 | B2 |
| 9 | B3 |
| 8 | B4 |
| 7 | B5 |
| 3 | B6 |

These binders were tested against T12, Hse1, P38753 (assay: SPOT array). Conditions: median of control spots 1727.

| SPOT intensity | Binder |
| --- | --- |
| 14 | B1 |
| 4 | B2 |
| 17 | B3 |
| 13 | B4 |
| 25 | B5 |
| 11 | B6 |

What follows are binders tested against T13, Lsb1, P53281 (assay: SPOT array). Conditions: median of control spots 388.

| SPOT intensity | Binder |
| --- | --- |
| 9 | B1 |
| 0 | B2 |
| 137 | B3 |
| 4 | B4 |
| 4 | B5 |
| 35 | B6 |

What follows are binders tested against T14, Lsb3, P43603 (assay: SPOT array). Conditions: median of control spots 406.

| SPOT intensity | Binder |
| --- | --- |
| 6 | B1 |
| 2 | B2 |
| 2 | B3 |
| 0 | B4 |
| 0 | B5 |
| 6 | B6 |

What follows are binders tested against T15, Lsb4, P32793 (assay: SPOT array). Conditions: median of control spots 397.

| SPOT intensity | Binder |
| --- | --- |
| 16 | B1 |
| 2 | B2 |
| 21 | B3 |
| 0 | B4 |
| 12 | B5 |
| 16 | B6 |

The binders below were run against Myo3, P36006 (assay: SPOT array). Conditions: median of control spots 468.

| SPOT intensity | Binder |
| --- | --- |
| 8 | B1 |
| 0 | B2 |
| 7 | B3 |
| 2 | B4 |
| 8 | B5 |
| 10 | B6 |

Each binder was assayed against T16, Myo5, Q04439 (assay: SPOT array). Conditions: median of control spots 471.

| SPOT intensity | Binder |
| --- | --- |
| 1 | B1 |
| 0 | B2 |
| 2 | B3 |
| 0 | B4 |
| 0 | B5 |
| 20 | B6 |

Each binder was assayed against T17, Nbp2, Q12163 (assay: SPOT array). Conditions: median of control spots 357.

| SPOT intensity | Binder |
| --- | --- |
| 9 | B1 |
| 0 | B2 |
| 5 | B3 |
| 21 | B4 |
| 46 | B5 |
| 2 | B6 |

These binders were tested against T18, Pex13, P80667 (assay: SPOT array). Conditions: median of control spots 1341.

| SPOT intensity | Binder |
| --- | --- |
| 4 | B1 |
| 6 | B2 |
| 22 | B3 |
| 5 | B4 |
| 13 | B5 |
| 19 | B6 |

These binders were tested against T19, Pin3, Q06449 (assay: SPOT array). Conditions: median of control spots 2171.

| SPOT intensity | Binder |
| --- | --- |
| 1 | B1 |
| 0 | B2 |
| 27 | B3 |
| 0 | B4 |
| 5 | B5 |
| 33 | B6 |

What follows are binders tested against Rvs167, P39743 (assay: SPOT array). Conditions: median of control spots 2707.
Sequence of Rvs167, P39743 (P39743 419-482): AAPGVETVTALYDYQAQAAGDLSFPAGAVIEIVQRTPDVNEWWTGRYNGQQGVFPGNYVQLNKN

| SPOT intensity | Binder |
| --- | --- |
| 7 | B1 |
| 2 | B2 |
| 21 | B3 |
| 0 | B4 |
| 2 | B5 |
| 2 | B6 |

These binders were tested against Sho1, P40073 (assay: SPOT array). Conditions: median of control spots 1148.
Sequence of Sho1, P40073 (P40073 287-367): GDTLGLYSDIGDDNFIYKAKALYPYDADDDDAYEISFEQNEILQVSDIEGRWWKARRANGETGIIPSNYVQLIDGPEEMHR

| SPOT intensity | Binder |
| --- | --- |
| 188 | B1 |
| 19 | B2 |
| 112 | B3 |
| 25 | B4 |
| 173 | B5 |
| 79 | B6 |

These binders were tested against T20, Sla1-2, P32790 (assay: SPOT array). Conditions: median of control spots 712.

| SPOT intensity | Binder |
| --- | --- |
| 2 | B1 |
| 0 | B2 |
| 1 | B3 |
| 0 | B4 |
| 0 | B5 |
| 15 | B6 |

These binders were tested against T21, Sla1-3, P32790 (assay: SPOT array). Conditions: median of control spots 5475.

| SPOT intensity | Binder |
| --- | --- |
| 22 | B1 |
| 17 | B2 |
| 20 | B3 |
| 21 | B4 |
| 9 | B5 |
| 14 | B6 |
